Results reported in PMC10998826 (EJNMMI Research, 2024).

How the values were obtained:
Dosimetry of kidneys = type: in vivo, humans; conditions: for Kidney dose: median
Method: Planar whole-body scintigraphy and quantitative SPECT/CT acquisitions of neck/thorax/abdomen/pelvis were acquired with a hybrid SPECT/CT system (Siemens Intevo, Siemens Erlangen, Germany) at 1, 4, 24 and 72 h post injection (p.i.).
Kidney dosimetry was performed using the dosimetry workflow in the DRT, which includes automatic organ segmentation, time activity curve modelling, and absorbed dose calculation using the medical internal radiation dosimetry (MIRD) method and voxel dosimetry.
After automatic organ segmentation in the 24 h SPECT images, the kidney VOIs were manually corrected to ensure accurate segmentation. Then, the SPECT images at 1, 4 and 72 h where manually co-registered to the 24 h images. Time activity curves were fitted to the measured kidney activity at the four time points using a single exponential function. The calculated and measured data were then used to estimate the absorbed dose in the kidneys using the MIRD method.
(§1) Bone marrow and kidney dosimetry was performed as described before.

Bone marrow dosimetry = type: in vivo, humans; conditions: for Bone marrow dose: median
Method: as §1

[1] = Acute toxicity, adverse events graded by CTCAE version 4.03; type: in vivo, humans; conditions: all patients, with and without Entresto premedication
Method: (§2) Patients were allowed a light breakfast at the day of each infusion. […] Entresto® was given at an oral dose of 100 mg, containing 48.6 mg sacubitril and 51.4 mg valsartan 2 h before the start of one of the two infusions. Vital signs were recorded, and a 12-lead electrocardiogram was obtained before and after each injection. Adverse events were recorded and graded according to Common Terminology Criteria for Adverse Events (CTCAE) version 4.03.

[2] = In-vivo stability in blood (radio-HPLC of plasma, % intact peptide); parameters: species or system humans; conditions: for Stability (% of initial signal): in-vivo, plasma radio-HPLC
Method: as §2
Blood samples were collected in polypropylene tubes containing ethylenediaminetetraacetic acid at 5, 15, 30 and 60 min after administration of ^177Lu-PP-F11N. The tubes were placed on ice. Plasma was separated by centrifugation (4000 g for 10 min) and protein precipitation followed using cold methanol (v/v 1/2). The mixture was stirred to favor precipitation of proteins and then centrifuged at 4000 g for 10 min. The supernatant was collected and filtered through a […] filter (Millex®-GV, Merck Millipore, Bedford, MA, USA). The clear solution was diluted with H2O (1:1) and then analyzed by radio-high performance liquid chromatography (HPLC) to determine the percentage of intact peptide over time. HPLCs were performed on the Agilent 1260 infinity instrument (Agilent, Santa Clara, United States) connected to a GABI radioactivity-HPLC-flow-monitor γ-spectrometer (Elysia-raytest, Straubenhardt, Germany).

CCK2R positive tumors = conditions: athymic mouse model; cited from earlier work
Text: About 90% of medullary thyroid carcinomas (MTCs) express the transmembrane G protein–coupled cholecystokinin 2 receptor (CCK2R) at a high density, making CCK2R an interesting target for peptide receptor radionuclide therapy (PRRT). Recently, a new generation of radiolabeled minigastrin derivatives, targeting CCK2R, with improved and promising properties was introduced. First clinical trials explore the potential of such compounds for imaging and PRRT of CCK2R expressing tumors, in particular for MTC [3–5]. However, the reported tumor radiation doses were lower than those usuall ...

[3] = Entresto premedication, eight patients

With `CSCC[C@H](NC(=O)[C@H](Cc1c[nH]c2ccccc12)NC(=O)CNC(=O)[C@H](Cc1ccc(O)cc1)NC(=O)[C@H](C)NC(=O)[C@@H](CCC(=O)O)NC(=O)[C@@H](CCC(=O)O)NC(=O)[C@@H](CCC(=O)O)NC(=O)[C@@H](CCC(=O)O)NC(=O)[C@@H](CCC(=O)O)NC(=O)[C@@H](CCC(=O)O)NC(=O)CN1CCN(CC(=O)O)CCN(CC(=O)O)CCN(CC(=O)O)CC1)C(=O)N[C@@H](CC(=O)O)C(=O)N[C@@H](Cc1ccccc1)C(N)=O` [[^177Lu]Lu-PP-F11N, [^177Lu]Lu-DOTA-(DGlu)6-Ala-Tyr-Gly-Trp-Met-Asp-Phe-NH2, metal not drawn] the “Median absorbed dose of kidneys after premedication compared to without” value (Dosimetry of kidneys; [3]) was 2.4 fold, the Kidney dose (Dosimetry of kidneys; with Entresto premedication) was 0.11 Gy/GBq and the Kidney dose (Dosimetry of kidneys; without Entresto premedication) was 0.05 Gy/GBq. The “Median absorbed dose of bone marrow after premedication compared to without” value (Bone marrow dosimetry; [3]) was 1.4 fold, the Bone marrow dose (Bone marrow dosimetry; with Entresto premedication) was 0.05 Gy/GBq and the Bone marrow dose (Bone marrow dosimetry; without Entresto premedication) was 0.03 Gy/GBq. For the same compound, the Serious adverse events [1] was “No serious adverse event”, the “Median stability with Entresto premedication compared to without” value (“Median stability … compared to without” below) ([2]; 5 min p.i.) was 1.1 fold and the “Median stability … compared to without” value ([2]; 15 min p.i.) was 1.1 fold. For the same compound, the “Median stability … compared to without” value ([2]; 30 min p.i.) was 1.2 fold, the “Median stability … compared to without” value ([2]; 60 min p.i.) was 1.6 fold and the “Stability (% of initial signal)” value ([2]; 5 min p.i., with Entresto premedication (100 mg oral, 2 h before), median of patients) was 99.5%. For the same compound, the “Stability (% of initial signal)” value ([2]; 5 min p.i., without Entresto premedication, median of patients) was 94.1%, the “Stability (% of initial signal)” value ([2]; 15 min p.i., with Entresto premedication (100 mg oral, 2 h before), median of patients) was 92.1% and the “Stability (% of initial signal)” value ([2]; 15 min p.i., without Entresto premedication, median of patients) was 80.3%. The “Stability (% of initial signal)” value ([2]; 15 min p.i., without Entresto premedication, patient 1) was 69.9%, the “Stability (% of initial signal)” value ([2]; 15 min p.i., without Entresto premedication, patient 2) was 80.3% and the “Stability (% of initial signal)” value ([2]; 15 min p.i., without Entresto premedication, patient 3) was 91.4%. The “Stability (% of initial signal)” value ([2]; 15 min p.i., without Entresto premedication, patient 4) was 90.5%, the “Stability (% of initial signal)” value ([2]; 15 min p.i., without Entresto premedication, patient 5) was 88.8% and the “Stability (% of initial signal)” value ([2]; 15 min p.i., without Entresto premedication, patient 6) was 90.2%. The “Stability (% of initial signal)” value ([2]; 15 min p.i., without Entresto premedication, patient 7) was 71.4%, the “Stability (% of initial signal)” value ([2]; 15 min p.i., without Entresto premedication, patient 8) was 68.1% and the “Stability (% of initial signal)” value ([2]; 30 min p.i., with Entresto premedication (100 mg oral, 2 h before), median of patients) was 78.5%. For the same compound, the “Stability (% of initial signal)” value ([2]; 30 min p.i., with Entresto premedication (100 mg oral, 2 h before), patient 1) was 78.5%, the “Stability (% of initial signal)” value ([2]; 30 min p.i., with Entresto premedication (100 mg oral, 2 h before), patient 2) was 85.7% and the “Stability (% of initial signal)” value ([2]; 30 min p.i., with Entresto premedication (100 mg oral, 2 h before), patient 3) was 80.6%. The “Stability (% of initial signal)” value ([2]; 30 min p.i., with Entresto premedication (100 mg oral, 2 h before), patient 5) was 85.5%, the “Stability (% of initial signal)” value ([2]; 30 min p.i., with Entresto premedication (100 mg oral, 2 h before), patient 6) was 77.9% and the “Stability (% of initial signal)” value ([2]; 30 min p.i., with Entresto premedication (100 mg oral, 2 h before), patient 7) was 75.3%. For the same compound, the “Stability (% of initial signal)” value ([2]; 30 min p.i., with Entresto premedication (100 mg oral, 2 h before), patient 8) was 79.9%, the “Stability (% of initial signal)” value ([2]; 30 min p.i., without Entresto premedication, median of patients) was 64.5% and the “Stability (% of initial signal)” value ([2]; 30 min p.i., without Entresto premedication, patient 1) was 64.5%. For the same compound, the “Stability (% of initial signal)” value ([2]; 30 min p.i., without Entresto premedication, patient 2) was 72.3%, the “Stability (% of initial signal)” value ([2]; 30 min p.i., without Entresto premedication, patient 3) was 74.8% and the “Stability (% of initial signal)” value ([2]; 30 min p.i., without Entresto premedication, patient 4) was 67.6%. For the same compound, the “Stability (% of initial signal)” value ([2]; 30 min p.i., without Entresto premedication, patient 6) was 60.3%, the “Stability (% of initial signal)” value ([2]; 30 min p.i., without Entresto premedication, patient 7) was 50.1% and the “Stability (% of initial signal)” value ([2]; 60 min p.i., with Entresto premedication (100 mg oral, 2 h before), median of patients) was 64.15%. For the same compound, the “Stability (% of initial signal)” value ([2]; 60 min p.i., without Entresto premedication, median of patients) was 41.1%, the “Increase in tumor uptake on co-injection of phosphoramidon” value (CCK2R positive tumors) was “not significant” and the “Increase in tumor uptake on co-injection of thiorphan” value (CCK2R positive tumors) was “only to a minor extent”.
